Reference: US20160185865A1

Molecular target: human CC chemokine receptor 4 (CCR4) (human) (UniProt P51679)
Experiment: binding curve of FIG. 20B; cells not given

Chain of human CC chemokine receptor 4 (CCR4) (human) (P51679 whole entry): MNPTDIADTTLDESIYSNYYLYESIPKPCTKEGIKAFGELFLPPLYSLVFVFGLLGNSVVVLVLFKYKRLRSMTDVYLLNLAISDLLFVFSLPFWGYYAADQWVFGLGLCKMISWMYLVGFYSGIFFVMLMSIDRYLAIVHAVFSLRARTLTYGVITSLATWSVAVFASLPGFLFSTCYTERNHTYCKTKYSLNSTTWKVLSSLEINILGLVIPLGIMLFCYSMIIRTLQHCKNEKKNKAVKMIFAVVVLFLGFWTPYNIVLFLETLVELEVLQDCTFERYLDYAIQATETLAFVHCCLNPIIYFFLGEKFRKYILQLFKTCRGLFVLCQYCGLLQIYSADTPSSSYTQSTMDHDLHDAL

B1: KM2760 (anti-CCR4 chimeric antibody) (antibody, from another filing, V domains shown)
VH: EVQLVESGGDLMKPGGSLKISCAASGFIFSNYGMSWVRQTPDMRLEWVATISSASTYSYYPDSVKGRFTISRDNAENSLYLQMNSLRSEDTGIYYCGRHSDGNFAFGYWGRGTLVTVSA
VL: DVLMTQTPLSLPVSLGDQASISCRSSRNIVHINGDTYLEWYLQRPGQSPKLLIYKVSNRFSGVPDRFSGSGSGTDFTLKISRVEAEDLGVYYCFQGSLLPWTFGGGTRLEIRR
- EC50: 5.07 nM
